Paper PMC11784390, “Conformational changes in and translocation of small proteins: insights into the ejection mechanism of podophages” (Journal of Virology, 2024)

T1: nozzle protein gp12 (bacteriophage T7, UniProt P03747 1-794)
T1 construct: nozzle protein gp12 of bacteriophage T7, as it stands in the virion; Native virion protein; also called tail nozzle; source: T7 virions propagated in E. coli, purified (PEG precipitation, CsCl ultracentrifugation)
T1 sequence (looked up): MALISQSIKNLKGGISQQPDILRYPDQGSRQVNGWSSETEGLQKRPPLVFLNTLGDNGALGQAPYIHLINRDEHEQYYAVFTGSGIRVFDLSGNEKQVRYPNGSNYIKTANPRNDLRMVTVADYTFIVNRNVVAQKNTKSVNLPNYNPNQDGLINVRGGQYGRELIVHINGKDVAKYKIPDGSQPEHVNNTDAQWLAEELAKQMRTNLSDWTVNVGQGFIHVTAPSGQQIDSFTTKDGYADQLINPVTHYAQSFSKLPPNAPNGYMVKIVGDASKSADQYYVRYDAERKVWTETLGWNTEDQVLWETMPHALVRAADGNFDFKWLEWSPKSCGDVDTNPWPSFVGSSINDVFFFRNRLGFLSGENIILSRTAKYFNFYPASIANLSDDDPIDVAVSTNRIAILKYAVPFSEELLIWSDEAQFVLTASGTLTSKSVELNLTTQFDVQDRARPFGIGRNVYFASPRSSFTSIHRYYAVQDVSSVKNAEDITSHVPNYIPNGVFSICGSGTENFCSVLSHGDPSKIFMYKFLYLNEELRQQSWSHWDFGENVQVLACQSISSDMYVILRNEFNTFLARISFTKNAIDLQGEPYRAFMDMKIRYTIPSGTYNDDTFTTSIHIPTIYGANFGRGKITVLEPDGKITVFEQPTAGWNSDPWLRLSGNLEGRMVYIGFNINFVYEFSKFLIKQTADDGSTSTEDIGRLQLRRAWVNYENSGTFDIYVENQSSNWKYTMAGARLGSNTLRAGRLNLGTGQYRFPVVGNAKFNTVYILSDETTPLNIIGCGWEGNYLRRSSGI

T2: core protein gp15 (bacteriophage T7, UniProt P03725 1-747)
T2 construct: core protein gp15 of bacteriophage T7, as it stands in the mature virion; Eight-fold ring in the core of mature T7; source: T7 virions propagated in E. coli, purified (PEG precipitation, CsCl ultracentrifugation)
T2 sequence (looked up): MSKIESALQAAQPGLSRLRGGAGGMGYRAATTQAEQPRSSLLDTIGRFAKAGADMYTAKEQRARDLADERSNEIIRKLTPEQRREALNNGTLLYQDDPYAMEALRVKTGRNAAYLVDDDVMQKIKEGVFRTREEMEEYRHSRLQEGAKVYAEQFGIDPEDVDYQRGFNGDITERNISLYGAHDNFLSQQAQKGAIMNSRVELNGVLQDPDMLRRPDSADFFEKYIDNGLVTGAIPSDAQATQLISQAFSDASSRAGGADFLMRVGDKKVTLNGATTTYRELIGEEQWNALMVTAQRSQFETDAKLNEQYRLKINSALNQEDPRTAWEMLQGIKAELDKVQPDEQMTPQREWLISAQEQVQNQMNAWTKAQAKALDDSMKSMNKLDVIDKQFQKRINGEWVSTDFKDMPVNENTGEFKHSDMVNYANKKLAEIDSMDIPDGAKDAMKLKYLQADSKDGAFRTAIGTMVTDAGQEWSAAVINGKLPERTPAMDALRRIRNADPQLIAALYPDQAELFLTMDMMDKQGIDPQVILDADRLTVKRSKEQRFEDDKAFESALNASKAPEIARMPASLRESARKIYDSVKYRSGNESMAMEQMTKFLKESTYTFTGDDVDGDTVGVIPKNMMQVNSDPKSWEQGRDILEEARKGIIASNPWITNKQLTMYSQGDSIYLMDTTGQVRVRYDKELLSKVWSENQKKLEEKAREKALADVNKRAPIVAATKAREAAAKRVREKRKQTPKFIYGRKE

T3: portal protein gp8 (bacteriophage T7, UniProt P03728 1-536)
T3 construct: portal protein gp8 of bacteriophage T7, as it stands in the virion; Native virion protein; also called dodecameric portal; source: T7 virions propagated in E. coli, purified (PEG precipitation, CsCl ultracentrifugation); copies: 12
T3 sequence (looked up): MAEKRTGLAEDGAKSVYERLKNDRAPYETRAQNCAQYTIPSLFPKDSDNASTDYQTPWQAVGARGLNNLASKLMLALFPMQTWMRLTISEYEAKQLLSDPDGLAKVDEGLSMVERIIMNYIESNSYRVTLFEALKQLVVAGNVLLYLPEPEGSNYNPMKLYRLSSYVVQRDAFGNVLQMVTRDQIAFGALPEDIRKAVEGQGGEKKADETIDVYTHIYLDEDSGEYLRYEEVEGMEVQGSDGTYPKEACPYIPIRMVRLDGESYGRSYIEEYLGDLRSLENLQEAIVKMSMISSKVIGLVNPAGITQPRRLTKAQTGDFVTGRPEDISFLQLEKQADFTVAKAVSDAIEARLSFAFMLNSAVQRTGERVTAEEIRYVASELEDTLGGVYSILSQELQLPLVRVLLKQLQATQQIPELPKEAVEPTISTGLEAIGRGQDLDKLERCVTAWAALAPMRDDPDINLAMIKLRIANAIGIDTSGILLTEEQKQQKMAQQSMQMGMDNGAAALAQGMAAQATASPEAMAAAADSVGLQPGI

T4: core protein gp16 (bacteriophage T7), P03726
T4 chain: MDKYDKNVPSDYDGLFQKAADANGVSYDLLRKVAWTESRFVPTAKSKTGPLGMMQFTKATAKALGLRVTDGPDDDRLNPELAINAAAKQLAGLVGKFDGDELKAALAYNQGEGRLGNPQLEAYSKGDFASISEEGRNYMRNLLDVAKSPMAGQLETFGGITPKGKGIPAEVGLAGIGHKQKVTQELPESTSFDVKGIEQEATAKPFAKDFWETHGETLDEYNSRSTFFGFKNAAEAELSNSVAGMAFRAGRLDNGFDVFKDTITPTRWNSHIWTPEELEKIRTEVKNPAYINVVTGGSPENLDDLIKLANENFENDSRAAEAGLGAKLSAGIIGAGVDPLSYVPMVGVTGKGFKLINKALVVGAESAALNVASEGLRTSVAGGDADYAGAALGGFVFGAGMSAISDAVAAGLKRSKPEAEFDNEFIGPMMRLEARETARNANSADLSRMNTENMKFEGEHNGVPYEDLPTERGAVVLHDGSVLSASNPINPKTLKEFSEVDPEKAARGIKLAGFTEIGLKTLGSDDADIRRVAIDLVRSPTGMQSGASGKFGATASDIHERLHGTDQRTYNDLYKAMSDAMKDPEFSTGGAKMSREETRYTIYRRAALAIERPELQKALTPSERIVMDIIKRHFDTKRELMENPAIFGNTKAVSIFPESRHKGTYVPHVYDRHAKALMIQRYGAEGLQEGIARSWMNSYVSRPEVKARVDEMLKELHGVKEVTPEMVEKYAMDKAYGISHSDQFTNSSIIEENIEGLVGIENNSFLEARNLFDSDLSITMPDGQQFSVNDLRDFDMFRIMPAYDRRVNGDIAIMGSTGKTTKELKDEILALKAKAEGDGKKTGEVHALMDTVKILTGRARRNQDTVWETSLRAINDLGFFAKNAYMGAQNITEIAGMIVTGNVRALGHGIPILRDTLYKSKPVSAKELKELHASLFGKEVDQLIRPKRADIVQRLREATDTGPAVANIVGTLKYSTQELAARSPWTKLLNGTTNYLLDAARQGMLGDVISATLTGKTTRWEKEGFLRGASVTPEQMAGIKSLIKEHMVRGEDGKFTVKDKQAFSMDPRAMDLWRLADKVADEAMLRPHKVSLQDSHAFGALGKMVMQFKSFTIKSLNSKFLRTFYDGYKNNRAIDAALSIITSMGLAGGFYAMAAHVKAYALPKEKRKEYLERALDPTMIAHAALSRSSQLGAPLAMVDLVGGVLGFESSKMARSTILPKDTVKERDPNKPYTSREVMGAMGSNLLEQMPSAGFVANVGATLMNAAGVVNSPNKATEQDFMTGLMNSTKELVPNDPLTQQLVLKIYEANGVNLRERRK

B1: small protein gp6.7 (natural protein, bacteriophage T7, UniProt P03801 1-88, looked up)
chain: MCFSPKIKTPKMDTNQIRAVEPAPLTQEVSSVEFGGSSDETDTEGTEVSGRKGLKVERDDSVAKSKASGNGSARMKSSIRKSAFGGKK
notes: gp6.7 of bacteriophage T7, 88 residues as printed; modelled loop I (2-15) and loop II (34-50) in mature T7, conformer A 11-41 and conformer B 11-59 in DNA-ejected T7; Twelve copies in the mature virion and in the extended channel of DNA-ejected T7; also called core protein gp6.7; source: T7 virions propagated in E. coli, purified (PEG precipitation, CsCl ultracentrifugation)
B2: core protein gp14 (natural protein, bacteriophage T7, UniProt P03724 1-196, looked up)
chain: MCWAAAIPIAISGAQAISGQNAQAKMIAAQTAAGRRQAMEIMRQTNIQNADLSLQARSKLEEASAELTSQNMQKVQAIGSIRAAIGESMLEGSSMDRIKRVTEGQFIREANMVTENYRRDYQAIFAQQLGGTQSAASQIDEIYKSEQKQKSKLQMVLDPLAIMGSSAASAYASGAFDSKSTTKAPIVAAKGTKTGR
notes: core protein gp14 of bacteriophage T7, 196 residues as printed; modelled residues 4-86 and 101-129 in mature T7, 25-143 in DNA-ejected T7; Eight copies resolved in the mature virion, six copies in the extended channel of DNA-ejected T7; source: T7 virions propagated in E. coli, purified (PEG precipitation, CsCl ultracentrifugation)
B3: core protein gp16, P03726 1-1318 (natural protein)
chain: T4 chain

Tests used:
nozzle protein gp12 = target: T1, nozzle protein gp12; assay: cryo-EM structure; DNA-ejected T7: purified mature T7 incubated with rough LPS (250 µg/mL) at 37°C for 3 h; entire particle asymmetric 8.2 Å; portal–tail complex 3.5 Å (six-fold); conditions: both partners purified
core protein gp15 = target: T2, core protein gp15; assay: cryo-EM structure; mature T7 virions, in situ; entire particle asymmetric 6.1 Å; local reconstructions of core complex 3 Å (four-fold), portal 2.5 Å (twelve-fold), portal–tail complex 2.7 Å (six-fold); conditions: both partners purified
portal protein gp8 = target: T3, portal protein gp8; assay: as above; conditions: both partners purified
core protein gp14 = target: B2; assay: as above; conditions: both partners purified
[1] = target: the molecule itself; assay: cryo-EM structure; DNA-ejected T7: purified mature T7 incubated with rough LPS (250 µg/mL) at 37°C for 3 h; entire particle asymmetric 8.2 Å; portal–tail complex 3.5 Å (six-fold)
[2] = target: T4, core protein gp16 (bacteriophage T7), …; assay: cryo-EM structure; mature T7 virions, in situ; entire particle asymmetric 6.1 Å; local reconstructions of core complex 3 Å (four-fold), portal 2.5 Å (twelve-fold), portal–tail complex 2.7 Å (six-fold); conditions: remark: other sources report otherwise

B1
binding result (nozzle protein gp12): binds
binding result (core protein gp15): binds
binding result (portal protein gp8): binds
binding result (core protein gp14): binds

B2
stoichiometry N [1]: 6
binding result (nozzle protein gp12): binds
binding result (core protein gp15): binds
binding result (portal protein gp8): binds

B3
stoichiometry N [2]: 4
